Laboratory results from US20210079074A1 (Alector, published 2021).
No end group written: not given here. *: point of attachment. Biotin = O=C1N[C@H]2[C@H](CS[C@H]2CCCCC(=O)*)N1

Legend:
human MS4A4A [1] = biological target: T1, human MS4A4A (human, UniProt Q96JQ5 1-239); test: cell-based or functional assay
[2] = biological target: T2, FcγRIIa receptor (H131 variant) (UniProt P12318 34-317, limits assumed); test: cell-based or functional assay
T2 sequence (looked up): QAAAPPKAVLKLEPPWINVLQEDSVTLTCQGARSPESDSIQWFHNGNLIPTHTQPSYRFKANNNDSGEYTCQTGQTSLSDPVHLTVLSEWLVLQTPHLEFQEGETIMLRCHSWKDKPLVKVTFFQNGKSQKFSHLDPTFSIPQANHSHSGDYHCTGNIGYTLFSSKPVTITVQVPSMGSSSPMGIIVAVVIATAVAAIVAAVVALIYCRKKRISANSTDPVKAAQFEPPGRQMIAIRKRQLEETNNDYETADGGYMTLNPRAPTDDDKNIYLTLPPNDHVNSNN

human MS4A4A [3] = biological target: T1, human MS4A4A; test: cell-based or functional assay; remark: listed apart in the source
[4] = biological target: FcγRIIIa receptor (V158 variant) (UniProt P08637 17-254); test: cell-based or functional assay
Sequence of FcγRIIIa receptor (V158 variant) (P08637 other isoform, or with tags, fused parts or gaps mutant limits assumed): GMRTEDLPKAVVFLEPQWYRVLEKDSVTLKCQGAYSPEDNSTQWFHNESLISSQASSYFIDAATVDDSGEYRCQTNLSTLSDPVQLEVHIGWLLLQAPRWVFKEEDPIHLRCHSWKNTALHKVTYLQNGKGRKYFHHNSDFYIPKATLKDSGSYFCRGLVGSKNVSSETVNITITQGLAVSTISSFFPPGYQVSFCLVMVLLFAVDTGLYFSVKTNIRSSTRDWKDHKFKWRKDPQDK

[5] = biological target: T3, recombinant MS4A4A soluble polypeptide JS5; test: ELISA, 0.4 ug/ml antibody
T3 construct: also called JS5.His

[6] = biological target: T4, huMS4A4A-ECL2 free-peptide (human); test: peptide ELISA, murine antibody
T4 construct: synthetic, free or BSA-conjugated, coated on the plate; also called human MS4A4A ECL2 peptide; huMS4A4A-ELC2 free-peptide
T4 peptide: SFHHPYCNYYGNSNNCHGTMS
Method: Coated plates were then blocked with ELISA diluent (PBS+0.5% BSA+0.05% Tween20) for 1-hour, washed 3×300 μL in PBST (PBS+0.05% Tween20, Thermo Cat#28352), and then the antibodies were added to the plate ([…]). After 30 mins incubation (room temperature, with shaking), the plates were washed 3×300 μL in PBST. […] After a final set of washes (3×300 μL in PBST), 50 μL of TMB substrate (BioFx Cat#TMBW-1000-01) was added and the reaction was then quenched after 5-10 mins with 50 μL of stop solution (BioFx Cat#BSTP-1000-01). The quenched reaction wells were detected for absorbance at […] with a BioTek Synergy Microplate Reader using GENS 2.04 software.

peptide 4A.9 = biological target: T5, peptide 4A.9 (human, cysteine pairing not given here); test: SPR array, biotin-peptide on streptavidin chip
T5 peptide: Biotin-PYCNYYGNSNNCHGT
Description: (§1) A panel of overlapping peptides derived from the extracellular loops (ECLs) of human MS4A4A (SEQ ID NO:1) were synthesized by JPT peptides (Berlin, Germany). These peptides were 15 amino acids in length, each offset by 2 amino acids. The peptides were biotinylated on the N-terminus. Peptides 4A.1 through 4A.4 were derived from human MS4A4A ECL1 and surrounding regions. Peptides 4A.5 through 4A.12 were derived from human MS4A4A ECL2 and surrounding regions.
(§2) The peptide library was printed onto a streptavidin-coated chip (Xantec SAD50M, Dusseldorf, Germany) using the Continuous Flow Microspotter (CFM). […] The peptide library was immobilized onto the chip at 250 nM per peptide diluted into HBS-EP+ buffer (Teknova Cat #H8022) with 1 mg/ml BSA and 1 μg/ml mouse IgG-Biotin. Following immobilization, the chip surface was deactivated with 1M ethanolamine at pH 8.5 for 10 minutes. Hybridoma supernatants and purified anti-MS4A4A antibodies were diluted in HBS-EP+ buffer with 1 mg/ml BSA and injected onto the chip. Duplicate measurements for each anti-MS4A4A antibody were taken to ensure reproducibility. Binding characteristics were determined for each peptide-antibody combination, allowing the mapping of the linear peptide region each antibody interacts with.

peptide 4A.2 = biological target: T6, peptide 4A.2 (human); test: SPR array, biotin-peptide on streptavidin chip
T6 peptide: Biotin-MMCMASNTYGSNPIS
Description: as §1, §2

peptide 4A.10 = biological target: T7, peptide 4A.10 (human, cysteine pairing not given here); test: SPR array, biotin-peptide on streptavidin chip
T7 peptide: Biotin-CNYYGNSNNCHGTMS
Description: as §1, §2

peptide 4A.7 = biological target: T8, peptide 4A.7 (human); test: SPR array, biotin-peptide on streptavidin chip
T8 peptide: Biotin-SFHHPYCNYYGNSNN
Description: as §1, §2

peptide 4A.5 = biological target: T9, peptide 4A.5 (human); test: SPR array, biotin-peptide on streptavidin chip
T9 peptide: Biotin-LAFYSFHHPYCNYYG
Description: as §1, §2

peptide 4A.11 = biological target: T10, peptide 4A.11 (human); test: SPR array, biotin-peptide on streptavidin chip
T10 peptide: Biotin-YYGNSNNCHGTMSIL
Description: as §1, §2

peptide 4A.8 = biological target: T11, peptide 4A.8 (human, cysteine pairing not given here); test: SPR array, biotin-peptide on streptavidin chip
T11 peptide: Biotin-HHPYCNYYGNSNNCH
Description: as §1, §2

peptide 4A.3 = biological target: T12, peptide 4A.3 (human); test: SPR array, biotin-peptide on streptavidin chip
T12 peptide: Biotin-CMASNTYGSNPISVY
Description: as §1, §2

peptide 4A.4 = biological target: T13, peptide 4A.4 (human); test: SPR array, biotin-peptide on streptavidin chip
T13 peptide: Biotin-ASNTYGSNPISVYIG
Description: as §1, §2

peptide 4A.6 = biological target: T14, peptide 4A.6 (human); test: SPR array, biotin-peptide on streptavidin chip
T14 peptide: Biotin-FYSFHHPYCNYYGNS
Description: as §1, §2

peptide 4A.12 = biological target: T15, peptide 4A.12 (human); test: SPR array, biotin-peptide on streptavidin chip
T15 peptide: Biotin-GNSNNCHGTMSILMG
Description: as §1, §2

peptide 4A.1 = biological target: T16, peptide 4A.1 (human); test: SPR array, biotin-peptide on streptavidin chip
T16 peptide: Biotin-ITMMCMASNTYGSNP
Description: as §1, §2

[7] = biological target: T17, recombinant MS4A4A soluble polypeptide JS1; test: ELISA, biotin-antigen on streptavidin plate
T17 construct: also called JS1.His; loop grafted antigen
Method: (§3) Anti-MS4A4A antibodies of the present disclosure were tested for their ability to bind to the different recombinant MS4A4A soluble polypeptides, as described in Example 2, as follows. Nucleic acid encoding the VH and VL domains of humanized anti-MS4A4A antibodies of the present disclosure were cloned into pcDNA3.4 vector which contains either the human IgG1 heavy chain constant domain or human kappa constant domain. The humanized anti-MS4A4A antibodies were expressed in Expi293 cells and were purified by Mab select antibody purification resin (GE Healthcare Life Science, cat#17519902) following the manufacture's protocol. ELISA was performed to measure binding of anti-MS4A4A antibodies of the present disclosure the recombinant MS4A4A soluble polypeptides. 1 μg/ml biotinylated antigens were preincubated on the streptavidin-coated ELISA plates (Thermo Scientific, cat#PI15120) for 1 hour. Plates were washed 3 times, followed by the addition of antibodies (1 μg/ml, 0.33 μg/ml, and 0.11 μg/ml antibodies. Plates were incubated at room temperature with shaking for 1 hr, washed 3 times, then 1/2500 dilution of HRP conjugates goat anti human kappa antibodies added (SigmaAldrich cat#. A7164-1ML).

[8] = biological target: T18, negative control polypeptide JS4; test: ELISA, biotin-antigen on streptavidin plate
T18 construct: negative control for JS1; also called JS4.His
Method: as §3

[9] = biological target: T19, recombinant MS4A4A soluble polypeptide JS6; test: ELISA, biotin-antigen on streptavidin plate
T19 construct: also called JS6.His
Method: as §3

[10] = biological target: T20, negative control polypeptide JS10; test: ELISA, biotin-antigen on streptavidin plate
T20 construct: negative control for JS5 and JS6; also called JS10.His
Method: as §3

[11] = biological target: T3, recombinant MS4A4A soluble polypeptide …; test: ELISA, biotin-antigen on streptavidin plate
Method: as §3

[12] = biological target: T17, recombinant MS4A4A soluble polypeptide …; test: ELISA, 1 ug/ml antibody
In short: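 Streptavidin plates are first loaded with biotinylated antigen at 1 μg/ml for 1 hour, then washed. Next, antibodies at 1, 0.33 or 0.11 μg/ml bind for 1 hr at room temperature. Finally, bound antibody is detected with HRP anti-human kappa.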

B1: anti-MS4A4A antibody 4A-313 NSLF huIgG1 (antibody)
heavy: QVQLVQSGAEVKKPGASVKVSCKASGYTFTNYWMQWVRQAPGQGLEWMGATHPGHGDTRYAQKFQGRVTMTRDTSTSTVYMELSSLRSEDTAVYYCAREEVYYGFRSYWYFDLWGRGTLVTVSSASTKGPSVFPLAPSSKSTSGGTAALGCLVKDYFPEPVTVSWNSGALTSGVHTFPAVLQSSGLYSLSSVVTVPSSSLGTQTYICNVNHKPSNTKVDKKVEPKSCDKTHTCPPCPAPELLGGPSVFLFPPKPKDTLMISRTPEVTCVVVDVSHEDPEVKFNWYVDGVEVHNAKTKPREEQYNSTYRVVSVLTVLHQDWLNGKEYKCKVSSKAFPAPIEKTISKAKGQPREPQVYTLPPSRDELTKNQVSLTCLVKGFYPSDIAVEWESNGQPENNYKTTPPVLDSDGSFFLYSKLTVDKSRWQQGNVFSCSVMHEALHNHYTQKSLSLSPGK
light: EIVLTQSPATLSLSPGERATLSCRASESVDNYGVSRMNWYQQKPGQAPRLLIYGASNQGSGIPARFSGSGSGTDFTLTISSLEPEDFAVYYCQQSKEVPPTFGGGTKVEIKRTVAAPSVFIFPPSDEQLKSGTASVVCLLNNFYPREAKVQWKVDNALQSGNSQESVTEQDSKDSTYSLSSTLTLSKADYEKHKVYACEVTHQGLSSPVTKSFNRGEC
With B1 the “EC50 of the increase of sTREM2, primary human macrophages” value (human MS4A4A [1]) was 0.025 µg/mL, the “luminescence, ADCP reporter, 3.048316 ng/mL” value [2] was 42 and the “luminescence, ADCP reporter, 9.144947 ng/mL” value [2] was 45. The “luminescence, ADCP reporter, 27.43484 ng/mL” value [2] was 39, the “luminescence, ADCP reporter, 82.30453 ng/mL” value [2] was 58 and the “luminescence, ADCP reporter, 246.9136 ng/mL” value [2] was 51. For the same binder, the “luminescence, ADCP reporter, 740.7407 ng/mL” value [2] was 61, the “luminescence, ADCP reporter, 2,222.222 ng/mL” value [2] was 55 and the “luminescence, ADCP reporter, 6,666.667 ng/mL” value [2] was 227. The “luminescence, ADCP reporter, 20,000 ng/mL” value [2] was 250, the “EC50 of the increase of mTREM2, primary human macrophages” value (human MS4A4A [3]) was 0.028 µg/mL and the “luminescence, ADCC reporter, 3.048316 ng/mL” value [4] was 324. For the same binder, the “luminescence, ADCC reporter, 9.144947 ng/mL” value [4] was 356, the “luminescence, ADCC reporter, 27.43484 ng/mL” value [4] was 347 and the “luminescence, ADCC reporter, 82.30453 ng/mL” value [4] was 360. For the same binder, the “luminescence, ADCC reporter, 246.9136 ng/mL” value [4] was 332, the “luminescence, ADCC reporter, 740.7407 ng/mL” value [4] was 363 and the “luminescence, ADCC reporter, 2,222.222 ng/mL” value [4] was 431. For the same binder, the “luminescence, ADCC reporter, 6,666.667 ng/mL” value [4] was 415 and the “luminescence, ADCC reporter, 20,000 ng/mL” value [4] was 442.

B2: anti-MS4A4A antibody 4A-21 (antibody, V domains shown)
VH: QIQLVQSGPELKKPGETVKISCKASGYIFTSYGLSWVKQTPGKGLKWMGWINTYSGVPTYANDFKGRFAFSLETSASTTYLRINNLKNDDTATYFCARSLVDYWGQGTPLTVSS
VL: not shown
notes: murine parental; tested as mouse IgG1 or as human IgG1 Fc chimera (hFc), told under assay; also called 4A-21.hFc
In the case of B2, the OD450 [5] is reported as 0.925, the binding result [6] is reported as “binds” and the SPR binding response (peptide 4A.9) is reported as 225. The SPR binding response (peptide 4A.2) was -11.5, the SPR binding response (peptide 4A.10) was -4.5 and the SPR binding response (peptide 4A.7) was 446. For the same binder, the SPR binding response (peptide 4A.5) was 383, the SPR binding response (peptide 4A.11) was -6.5 and the SPR binding response (peptide 4A.8) was 309. It also gave an SPR binding response (peptide 4A.3) of -10.6, an SPR binding response (peptide 4A.4) of -7.9 and an SPR binding response (peptide 4A.6) of 486. For the same binder, the SPR binding response (peptide 4A.12) was -5.2, the SPR binding response (peptide 4A.1) was -11.2 and the “ELISA OD” value [7] was 2.02. For the same binder, the “ELISA OD” value [8] was 0.138, the “ELISA OD” value [9] was 1.67 and the “ELISA OD” value [10] was 0.112. The “ELISA OD” value [11] was 1.73 and the OD450 [12] was 1.96.
